Experimental findings from patent publication US20050191626, “Method for forming a stable complex comprising a transcription product and translation product of a dna encoding a desired polypeptide, a nucleic acid construct used for the method, a complex formed by the method, and screening of a functional protein and mrna or dna encoding the protein using the …” (published 2005) are described below.

Series [1] addresses T1, DHFR-(RE)1 (DHFR fused to one HIV Tat-derived RE peptide) (UniProt P04608).
T1 sequence: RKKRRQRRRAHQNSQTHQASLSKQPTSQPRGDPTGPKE
Put plainly: EMSA. The note with it: apparent Kd; 10 mM Tris-HCl pH 8.0, 70 mM NaCl, 2 mM EDTA, 0.1% NP-40, 40 nM tRNA, 30 C. (Mobility shift assays separate free from complexed probe on a gel.)

Series [2] deals with T2, DHFR-(RE)2 (DHFR fused to two tandem Tat-derived RE peptides) (UniProt P04608).
T2 sequence: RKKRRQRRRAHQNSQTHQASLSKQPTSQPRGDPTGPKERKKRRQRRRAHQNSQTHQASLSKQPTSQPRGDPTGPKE
Briefly: EMSA. The note with it: apparent Kd; 10 mM Tris-HCl pH 8.0, 70 mM NaCl, 2 mM EDTA, 0.1% NP-40, 40 nM tRNA, 30 C.

In series [3] the target is T3, DHFR-(RE)3 (DHFR fused to three tandem Tat-derived RE peptides) (UniProt P04608).
T3 sequence: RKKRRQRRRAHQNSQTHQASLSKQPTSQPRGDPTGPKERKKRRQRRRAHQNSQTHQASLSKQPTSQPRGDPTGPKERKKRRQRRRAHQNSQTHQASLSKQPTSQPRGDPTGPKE
Briefly: EMSA. Conditions: apparent Kd; 10 mM Tris-HCl pH 8.0, 70 mM NaCl, 2 mM EDTA, 0.1% NP-40, 40 nM tRNA, 30 C.

Series [4] addresses dihydrofolate reductase (DHFR), wild type (UniProt P0ABQ4 P0ABQ4:1-159). Briefly: EMSA; no mobility change with increasing wild-type DHFR. Conditions: tags: poly-His (pET30a); label: 5'-32P.

Some results are limits rather than exact numbers.

Consider “AAAAAACGAAGCUUGAUCCCGUUUGCCGGUCGAUCGCUUCG [(Apt)1 Tat aptamer]”, for which the Kd in series [1] was below 24 nM.

As for “AAAAAACGAAGCUUGAUCCCGUUUGCCGGUCGAUCGCUUCGAAAAAACGAAGCUUGAUCCCGUUUGCCGGUCGAUCGCUUCG [(Apt)2 two tandem Tat aptamers via A6 linker]”, the Kd in series [2] was below 0.2 nM.

Consider “AAAAAACGAAGCUUGAUCCCGUUUGCCGGUCGAUCGCUUCGAAAAAACGAAGCUUGAUCCCGUUUGCCGGUCGAUCGCUUCGAAAAAACGAAGCUUGAUCCCGUUUGCCGGUCGAUCGCUUCG [(Apt)3 three tandem Tat aptamers via A6 linkers]”, for which the Kd in series [3] was below 0.016 nM.

As for AAAAAACGAAGCUUGAUCCCGUUUGCCGGUCGAUCGCUUCG (ssRNA) [(Apt)1 Tat aptamer], the binding result in series [4] was “no binding”.

B1: (Apt)3 three tandem Tat aptamers via A6 linkers (ssRNA)
RNA: AAAAAACGAAGCUUGAUCCCGUUUGCCGGUCGAUCGCUUCGAAAAAACGAAGCUUGAUCCCGUUUGCCGGUCGAUCGCUUCGAAAAAACGAAGCUUGAUCCCGUUUGCCGGUCGAUCGCUUCG
Take B1: in series [4], the binding result was “no binding”.

B2: (Apt)2 two tandem Tat aptamers via A6 linker (ssRNA)
RNA: AAAAAACGAAGCUUGAUCCCGUUUGCCGGUCGAUCGCUUCGAAAAAACGAAGCUUGAUCCCGUUUGCCGGUCGAUCGCUUCG
Regarding B2, in series [4], the binding result is recorded as “no binding”.
